This is an account of results in patent US11795460B2, “Compositions and methods for TTR gene editing and treating ATTR amyloidosis” (Intellia Therapeutics, Inc., priority 2017, dated 2023).

B1: G000501: TTR sgRNA modified sequence, Human, SEQ ID No. 108; guide sequence of CR005300 (nucleic acid)
guide: mU*mC*mA*rCrArGrArArArCrArCrUrCrArCrCrGrUrArGrUrUrUrUrArGrAmGmCmUmAmGmAmAmAmUmAmGmCrArArGrUrUrArArArArUrArArGrGrCrUrArGrUrCrCrGrUrUrArUrCrAmAmCmUmUmGmAmAmAmAmAmGmUmGmGmCmAmCmCmGmAmGmUmCmGmGmUmGmCmU*mU*mU*mU
B2: G000492: TTR sgRNA modified sequence, Human, SEQ ID No. 99; guide sequence of CR003342 (nucleic acid)
guide: mC*mU*mU*rCrUrCrUrArCrArCrCrCrArGrGrGrCrArCrGrUrUrUrUrArGrAmGmCmUmAmGmAmAmAmUmAmGmCrArArGrUrUrArArArArUrArArGrGrCrUrArGrUrCrCrGrUrUrArUrCrAmAmCmUmUmGmAmAmAmAmAmGmUmGmGmCmAmCmCmGmAmGmUmCmGmGmUmGmCmU*mU*mU*mU
B3: G000485: TTR sgRNA modified sequence, Human, SEQ ID No. 92; guide sequence of CR003336 (nucleic acid)
guide: mC*mC*mU*rCrCrUrCrUrGrCrCrUrUrGrCrUrGrGrArCrGrUrUrUrUrArGrAmGmCmUmAmGmAmAmAmUmAmGmCrArArGrUrUrArArArArUrArArGrGrCrUrArGrUrCrCrGrUrUrArUrCrAmAmCmUmUmGmAmAmAmAmAmGmUmGmGmCmAmCmCmGmAmGmUmCmGmGmUmGmCmU*mU*mU*mU
B4: G000497: TTR sgRNA modified sequence, Human, SEQ ID No. 104; guide sequence of CR003335 (nucleic acid)
guide: mC*mU*mG*rCrUrCrCrUrCrCrUrCrUrGrCrCrUrUrGrCrGrUrUrUrUrArGrAmGmCmUmAmGmAmAmAmUmAmGmCrArArGrUrUrArArArArUrArArGrGrCrUrArGrUrCrCrGrUrUrArUrCrAmAmCmUmUmGmAmAmAmAmAmGmUmGmGmCmAmCmCmGmAmGmUmCmGmGmUmGmCmU*mU*mU*mU
B5: G000496: TTR sgRNA modified sequence, Human, SEQ ID No. 103; guide sequence of CR005304 (nucleic acid)
guide: mG*mG*mC*rCrGrUrGrCrArUrGrUrGrUrUrCrArGrArArGrUrUrUrUrArGrAmGmCmUmAmGmAmAmAmUmAmGmCrArArGrUrUrArArArArUrArArGrGrCrUrArGrUrCrCrGrUrUrArUrCrAmAmCmUmUmGmAmAmAmAmAmGmUmGmGmCmAmCmCmGmAmGmUmCmGmGmUmGmCmU*mU*mU*mU
B6: G000491: TTR sgRNA modified sequence, Human, SEQ ID No. 98; guide sequence of CR003338 (nucleic acid)
guide: mA*mU*mA*rCrCrArGrUrCrCrArGrCrArArGrGrCrArGrGrUrUrUrUrArGrAmGmCmUmAmGmAmAmAmUmAmGmCrArArGrUrUrArArArArUrArArGrGrCrUrArGrUrCrCrGrUrUrArUrCrAmAmCmUmUmGmAmAmAmAmAmGmUmGmGmCmAmCmCmGmAmGmUmCmGmGmUmGmCmU*mU*mU*mU
B7: G000495: TTR sgRNA modified sequence, Human, SEQ ID No. 102; guide sequence of CR003343 (nucleic acid)
guide: mC*mA*mG*rArGrGrArCrArCrUrUrGrGrArUrUrCrArCrGrUrUrUrUrArGrAmGmCmUmAmGmAmAmAmUmAmGmCrArArGrUrUrArArArArUrArArGrGrCrUrArGrUrCrCrGrUrUrArUrCrAmAmCmUmUmGmAmAmAmAmAmGmUmGmGmCmAmCmCmGmAmGmUmCmGmGmUmGmCmU*mU*mU*mU
B8: G000486: TTR sgRNA modified sequence, Human, SEQ ID No. 93; guide sequence of CR003339 (nucleic acid)
guide: mA*mC*mA*rCrArArArUrArCrCrArGrUrCrCrArGrCrArGrUrUrUrUrArGrAmGmCmUmAmGmAmAmAmUmAmGmCrArArGrUrUrArArArArUrArArGrGrCrUrArGrUrCrCrGrUrUrArUrCrAmAmCmUmUmGmAmAmAmAmAmGmUmGmGmCmAmCmCmGmAmGmUmCmGmGmUmGmCmU*mU*mU*mU
B9: G000498: TTR sgRNA modified sequence, Human, SEQ ID No. 105; guide sequence of CR003359 (nucleic acid)
guide: mA*mG*mU*rGrArGrUrCrUrGrGrArGrArGrCrUrGrCrArGrUrUrUrUrArGrAmGmCmUmAmGmAmAmAmUmAmGmCrArArGrUrUrArArArArUrArArGrGrCrUrArGrUrCrCrGrUrUrArUrCrAmAmCmUmUmGmAmAmAmAmAmGmUmGmGmCmAmCmCmGmAmGmUmCmGmGmUmGmCmU*mU*mU*mU
B10: G000487: TTR sgRNA modified sequence, Human, SEQ ID No. 94; guide sequence of CR003357 (nucleic acid)
guide: mU*mU*mC*rUrUrUrGrGrCrArArCrUrUrArCrCrCrArGrGrUrUrUrUrArGrAmGmCmUmAmGmAmAmAmUmAmGmCrArArGrUrUrArArArArUrArArGrGrCrUrArGrUrCrCrGrUrUrArUrCrAmAmCmUmUmGmAmAmAmAmAmGmUmGmGmCmAmCmCmGmAmGmUmCmGmGmUmGmCmU*mU*mU*mU

Strand notation (5' to 3'): a small letter for the sugar, then the base; units joined by * are phosphorothioate-linked, units joined directly phosphodiester-linked; [ ] holds rarer units or linkages, { } end groups; capitals alone tell only the bases. m = 2'-O-methyl; r = 2'-OH (RNA)

The subject of the first series is TTR. The series can be described thus: TTR editing in primary human hepatocytes transfected with Spy Cas9 protein and sgRNAs (Table 12). The series is classed as cell-based. The conditions noted are these: primary human hepatocytes transfected with Spy Cas9 protein (RNP) and sgRNAs. The procedure: (§1) Primary liver hepatocytes. Primary human liver hepatocytes (PHH) and primary cynomolgus liver hepatocytes (PCH) (Gibco) were cultured per the manufacturer's protocol (Invitrogen, protocol 11.28.2012). In brief, the cells were thawed and resuspended in hepatocyte thawing medium with supplements (Gibco, Cat. CM7000) followed by centrifugation at 100 g for 10 minutes for human and 80 g for 4 minutes for cyno. The supernatant was discarded and the pelleted cells resuspended in hepatocyte plating medium plus supplement pack (Invitrogen, Cat. A1217601 and CM3000). Cells were counted and plated on Bio-coat collagen I coated 96-well plates (ThermoFisher, Cat. 877272) at a density of 33,000 cells/well for human or 60,000 cells/well for cyno (or 65,000 cells/well when assaying effects on TTR protein, described further below). Plated cells were allowed to settle and adhere for 6 or 24 hours in a tissue culture incubator at 37° C. and 5% CO2 atmosphere. After incubation cells were checked for monolayer formation and media was replaced with hepatocyte culture medium with serum-free supplement pack (Invitrogen, Cat. A1217601 and CM4000).
(§2) […] formation was performed prior to electroporation or transfection of Spy Cas9 protein loaded with guide RNAs (RNPs) onto cells. For dual guide (dgRNAs), individual crRNA and trRNA was pre-annealed by mixing equivalent amounts of reagent and incubating at 95° C. for 2 min and cooling to room temperature. Single guide (sgRNAs) were boiled at 95° C. for 2 min and cooling to room temperature. The boiled dgRNA or sgRNA was incubated with Spy Cas9 protein in Optimem for 10 minutes at room temperature to form a ribonucleoprotein (RNP) complex.
For RNP lipoplex transfections, cells were transfected with Lipofectamine RNAiMAX (ThermoFisher, Cat. 13778150) per the manufacturer's protocol. Cells were transfected with an RNP containing Spy Cas9 (10 nM), individual guide (10 nM), tracer RNA (10 nM), Lipofectamine RNAiMAX (1.0 μL/well) and OptiMem. RNP formation was performed as described above.
(§3) Transfected cells were harvested post-transfection at 24, 48, or 72 hours. The genomic DNA was extracted from each well of a 96-well plate using 50 μL/well BuccalAmp DNA Extraction solution (Epicentre, Cat. QE09050) per manufacturer's protocol. All DNA samples were subjected to PCR and subsequent NGS analyses, as described herein.
(§4) To quantitatively determine the efficiency of editing at the target location in the genome, sequencing was utilized to identify the presence of insertions and deletions introduced by gene editing.
(§5) Primers were designed around the target site within the gene of interest (e.g. TTR), and the genomic area of interest was amplified.
(§6) Additional PCR was performed per the manufacturer's protocols (Illumina) to add chemistry for sequencing. The amplicons were sequenced on an Illumina MiSeq instrument. The reads were aligned to a reference genome (e.g., the human reference genome (hg38), the cynomologus reference genome (mf5), the rat reference genome (rn6), or the mouse reference genome (mm10)) after eliminating those having low quality scores. The resulting files containing the reads were mapped to the reference genome (BAM files), where reads that overlapped the target region of interest were selected and the number of wild type reads versus the number of reads which contain an insertion, substitution, or deletion was calculated.
The editing percentage (e.g., the “editing efficiency” or “percent editing” or “indel frequency”) is defined as the total number of sequence reads with insertions/deletions (“indels”) or substitutions over the total number of sequence reads, including wild type.
Guides in modified sgRNA format targeting human and/or cyno TTR were delivered to primary human hepatocytes and primary cyno hepatocytes as described in Example 1. […]
With B1, the “Avg % Deletion” value is given as 6.00%, the “Avg % Edit” value stood at 60.93% and the “Avg % Insert” value was determined as 55.13%.

For the molecule B2, the “Avg % Deletion” value was 3.13%, the “Avg % Edit” value is given as 60.97% and the “Avg % Insert” value was 57.90%.

With B3, the “Avg % Deletion” value was 3.13%, the “Avg % Edit” value was 56.07% and the “Avg % Insert” value came out at 53.07%.

On to B4, for which the “Avg % Deletion” value came to 8.73%, the “Avg % Edit” value was determined as 59.67% and the “Avg % Insert” value stood at 51.10%.

As for B5, the “Avg % Deletion” value was 27.67%, the “Avg % Edit” value is 72.33% and the “Avg % Insert” value is on record as 44.73%.

With B6, the “Avg % Deletion” value is given as 4.33%, the “Avg % Edit” value is reported as 74.30% and the “Avg % Insert” value is on record as 70.27%.

In the case of B7, the “Avg % Deletion” value is 5.37%, the “Avg % Edit” value turned out to be 50.80% and the “Avg % Insert” value is on record as 45.80%.

For B8, the “Avg % Deletion” value is given as 59.93%, the “Avg % Edit” value stood at 69.73% and the “Avg % Insert” value turned out to be 9.83%.

Take B9: the “Avg % Deletion” value was 12.70%, the “Avg % Edit” value stood at 72.80% and the “Avg % Insert” value came out at 60.17%.

Turning to B10, the “Avg % Deletion” value was 2.07%, the “Avg % Edit” value worked out at 67.30% and the “Avg % Insert” value was 65.27%.

The next series deals with TTR. Briefly: TTR editing in primary cyno hepatocytes electroporated with Spy Cas9 protein and sgRNAs (Tables 14, 15). The series is classed as cell-based, cynomolgus monkey. As to conditions: Table 14; primary cyno hepatocytes electroporated with Spy Cas9 protein (RNP) and sgRNAs. As for the experimental part: as §1, §2
For RNP electroporation into primary human and cyno hepatocytes, the cells are thawed and resuspended in Lonza electroporation Primary Cell P3 buffer at a concentration of 2500 cells per μL for human hepatocytes and 3500 cells per μL for cyno hepatocytes. A volume of 20 μL of resuspended cells and 5 μL of RNP are mixed together per guide. 20 μL of the mixture is placed into a Lonza electroporation plate. The cells were electroporated using the Lonza nucleofector with the preset protocol EX-147. Post electroporation, the cells are transferred into a Biocoat plate containing pre-warmed maintenance media and placed in a tissue culture incubator at 37° C. and 5% CO2.
as §3, §4, §5, §6
The editing percentage (e.g., the “editing efficiency” or “percent editing” or “indel frequency”) is defined as the total number of sequence reads with insertions/deletions (“indels”) or substitutions over the total number of sequence reads, including wild type. […]
For B3, the “Avg % Deletion” value was found to be 1.07%, the “Avg % Edit” value is given as 22.93% and the “Avg % Insert” value turned out to be 22.00%.

For the molecule B6, the “Avg % Deletion” value is recorded as 1.90%, the “Avg % Edit” value is on record as 66.20% and the “Avg % Insert” value came to 64.37%.

Consider B8, for which the “Avg % Deletion” value came out at 68.07%, the “Avg % Edit” value was found to be 79.90% and the “Avg % Insert” value stood at 11.90%.

Take B9: the “Avg % Deletion” value worked out at 22.87%, the “Avg % Edit” value amounted to 91.37% and the “Avg % Insert” value is listed as 68.50%.
